{"source": "paper PMC10298792", "about": "“Structural basis for proapoptotic activation of Bak by the noncanonical BH3-only protein Pxt1” (PLOS Biology, 2023)", "binders": {"B1": {"name": "C-terminal His6-tagged human Bak (residues 23–185;C166S) (domain or fragment, UniProt Q16611 23-185, looked up)", "chain": "SEEQVAQDTEEVFRSYVFYRHQQEQEAEGVAAPADPEMVTLPLQPSSTMGQVGRQLAIIGDDINRRYDSEFQTMLQHLQPTAENAYEYFTKIATSLFESGINWGRVVALLGFGYRLALHVYQHGLTGFLGQVTRFVVDFMLHHSIARWIAQRGGWVAALNLGN", "notes": "also called recombinant Bak; source: E. coli BL21(DE3) RIL, purified (Ni-NTA, Superdex 75 gel filtration); not shown: His6, C-terminal, kept"}, "B2": {"name": "synthetic human Pxt1(76–101) peptide (peptide, UniProt Q8NFP0 76-101, looked up)", "peptide": "EEIIHKLAMQLRHIGDNIDHRMVRED", "notes": "Pxt1, human, residues 76-101; also called human Pxt1 BH3; Pxt1 BH3 peptide; source: synthetic peptide (Peptron, Korea)"}, "B3": {"name": "human Pxt1(76–101) BH3 fragment, separately purified, as mixed with recombinant Bax (peptide, UniProt Q8NFP0 76-101, looked up)", "chain": "EEIIHKLAMQLRHIGDNIDHRMVRED", "notes": "Pxt1, human, BH3 domain, residues 76-101, cloned into pET21a-m2; it is surmised to be the recombinant pET21a-m2 product and not the synthetic peptide; also called Pxt1 BH3 fragment; human Pxt1 BH3 domain; source: separately purified (the recombinant construct was made in E. coli BL21(DE3) RIL)"}}, "key": {"[1]": {"molecular_target": "the molecule itself", "assay": "SEC; 100 μM Bak, 1 mM Pxt1 BH3 peptide and 1% CHAPS; Superdex 75 10/300 GL"}, "[2]": {"molecular_target": "B1", "assay": "ITC; Pxt1 peptide (0.8 mM) titrated into 80 μM recombinant Bak; no detergent; performed as in ref. 27", "conditions": "both partners purified"}, "[3]": {"molecular_target": "T1, recombinant human Bax (residues 1–172;C62S·C126S) (human, UniProt Q07812 1-172, C62S | C126S)", "T1 construct": "Bax, human, residues 1-172 with C62S and C126S, cloned into pET21a-m1; also called recombinant Bax; source: E. coli BL21(DE3) RIL, purified (Ni-NTA, Superdex 75 gel filtration)", "T1 sequence (Q07812 1-172 C62S/C126S)": "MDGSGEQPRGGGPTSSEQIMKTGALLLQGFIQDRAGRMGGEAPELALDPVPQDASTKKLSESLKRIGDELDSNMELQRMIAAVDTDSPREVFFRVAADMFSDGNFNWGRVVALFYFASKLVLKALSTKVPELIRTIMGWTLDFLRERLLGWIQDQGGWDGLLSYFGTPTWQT", "assay": "SEC; separately purified proteins mixed at a molar ratio of 1:3, incubated for 1 h; Superdex 200 increase 10/300 GL; no detergent; peak fractions on SDS–PAGE", "conditions": "both partners purified"}}, "data": [{"binder": "B1", "values": [{"measurement": "stoichiometry N", "setting": "[1]", "value": 2}]}, {"binder": "B2", "values": [{"measurement": "Kd", "setting": "[2]", "value": 15.4, "unit": "µM"}]}, {"binder": "B3", "values": [{"measurement": "binding result", "setting": "[3]", "value": "binds"}]}]}
